In US20110008436A1 (published 2011):
Where no end group is shown, it is not given here.

Legend:
[1] = biological target: T1, Substantially sericin-depleted silk fibroin from Bombyx mori (dissolved in 9.3 M LiBr, dialysed, then gelled … (Bombyx mori, UniProt P05790 22-5263; P21828 17-262, limits assumed); experiment: HPLC of 23RGD extracted from lyophilised silk precipitate; formulation labelled 0.6S 3R 10:1 (2.45 mg/mL 23RGD in 90% ethanol)
T1 construct: also called silk molecule; depolymerized silk fibroin
Description: (§1) The amount of 23RGD bound to silk precipitates was quantified by analyzing lyophilized samples. The 23RGD was removed by incubating the samples for 4 hours in a dissolving buffer, then centrifuging on an Eppendorf 5415C (Eppendorf North America Inc., Westbury, N.Y.) at 16,000 g (RCF) for 30 minutes and the supernatant collected. This supernatant was then centrifuged in identical fashion and the final supernatant collected for HPLC analysis using a PerkinElmer Series 200 (PerkinElmer, Waltham, Mass.). The 23RGD peak areas from each curve were compared against a standard curve. 1-Way ANOVA was used to test for significant differences caused by changing silk concentration, 23RGD concentration, and accelerant volume. A Student's t-test was used to test the significance of differences resulting from altered ethanol concentrations.

[2] = biological target: T1, Substantially sericin-depleted silk …; experiment: HPLC of 23RGD extracted from silk precipitate; ECLO formulation (80% ethanol accelerant), against the calculated ratio
Description: as §1

[3] = biological target: T1, Substantially sericin-depleted silk …; experiment: HPLC of 23RGD extracted with dissolving buffer from the rinsed 23RGD-enhanced silk gel, against a 23RGD standard curve
Description: 23RGD-infused gels were studied to quantify the amount of 23RGD bound to the silk-hydrogel device as well as the quantity of free 23RGD which might be rinsed free of the device under relevant conditions. Briefly, samples of 23RGD-infused gel were cast and rinsed according to the methods above, with samples of rinse buffer being collected from each rinse for subsequent analysis by HPLC. Additionally, subsequent to the last rinse, the gel samples were mechanically pulverized by means of a stainless steel stirring rod and the adsorbed 23RGD removed by incubation for 4 hours in a dissolving buffer. This mixture of gel and solvent was then centrifuged on an Eppendorf 5415C at 16,000 g RCF for 30 minutes. The supernatant was collected and centrifuged another 30 minutes at 16,000 g RCF after which time the supernatant was collected in a sample vial for HPLC analysis. Samples of rinse buffer from the first and last rinse were centrifuged in the same fashion after being diluted with the same solvent the gel was extracted with in a volumetric ratio of 1 part rinse buffer to 4 parts solvent. To ensure 23RGD-hydrogel device rinse-exposed surface area was not a limiting factor, the same rinse and extraction process was performed upon devices pulverized after gelation and before rinsing.

[4] = biological target: T1, Substantially sericin-depleted silk …; experiment: Inferred by the filing from the HPLC ratios of the precipitates
Description: as §1

[5] = biological target: T1, Substantially sericin-depleted silk …; experiment: HPLC of 23RGD extracted from lyophilised silk precipitate; AVLO formulation (low accelerant volume, calculated ratio 2.5)
Description: as §1

[6] = biological target: T1, Substantially sericin-depleted silk …; experiment: HPLC of 23RGD extracted from lyophilised silk precipitate; group called RMED (1.47 mg/mL 23RGD per paragraph 318, which is RLO in Table 10)
Description: as §1

[7] = biological target: T1, Substantially sericin-depleted silk …; experiment: HPLC of 23RGD extracted from silk precipitate, against the calculated ratio
Description: as §1

[8] = biological target: T1, Substantially sericin-depleted silk …; experiment: HPLC of 23RGD extracted from lyophilised silk precipitate; RHI formulation (high 23RGD, calculated ratio 10.0)
Description: as §1

[9] = biological target: T1, Substantially sericin-depleted silk …; experiment: HPLC of 23RGD extracted from lyophilised silk precipitate; group called RLO in this sentence (0.49 mg/mL 23RGD per paragraph 318, which is RVLO in Table 10)
Description: as §1

[10] = biological target: T1, Substantially sericin-depleted silk …; experiment: HPLC of 23RGD extracted from lyophilised silk precipitate; SCVLO formulation (very low silk concentration, calculated ratio 10.0)
Description: as §1

[11] = biological target: T1, Substantially sericin-depleted silk …; experiment: HPLC of 23RGD extracted from lyophilised silk precipitate; BASE formulation (calculated ratio 5.0)
Description: as §1

[12] = biological target: T1, Substantially sericin-depleted silk …; experiment: HPLC of 23RGD extracted from lyophilised silk precipitate; AVHI formulation (high accelerant volume, calculated ratio 10.0)
Description: as §1

[13] = biological target: T1, Substantially sericin-depleted silk …; experiment: HPLC of 23RGD extracted from lyophilised silk precipitate; SCLO formulation (low silk concentration, calculated ratio 6.7)
Description: as §1

B1: 23RGD peptide (amphiphilic peptide GRGDIPASSKG4SRL6R-NH2) (peptide)
peptide: GRGDIPASSKGGGGSRLLLLLLR-NH2
notes: also called 23RDG
- 23RGD:silk molar ratio bound [1]: ~10 mol 23RGD per mol silk
- fold of the expected (calculated) bound 23RGD [2]: ~1.5 fold
- 23RGD:silk molar ratio bound [3]: 3.35 mol 23RGD per mol silk
- apparent saturation, 23RGD:silk ratio [4]: ~10 mol 23RGD per mol silk
- 23RGD:silk molar ratio bound [5]: 5.2 mol 23RGD per mol silk
- 23RGD:silk molar ratio bound [6]: 6.95 mol 23RGD per mol silk
- fold of the expected (calculated) bound 23RGD [7]: ~2 fold
- 23RGD:silk molar ratio bound [8]: 10.7 mol 23RGD per mol silk
- 23RGD:silk molar ratio bound [9]: 1.1 mol 23RGD per mol silk
- 23RGD:silk molar ratio bound [10]: 11 mol 23RGD per mol silk
- 23RGD:silk molar ratio bound [11]: 8.7 mol 23RGD per mol silk
- 23RGD:silk molar ratio bound [12]: 10.5 mol 23RGD per mol silk
- 23RGD:silk molar ratio bound [13]: 9.9 mol 23RGD per mol silk
